Biological target: T1, flag–Lte1 (budding yeast, UniProt P07866 1-1435)
T1 sequence (looked up): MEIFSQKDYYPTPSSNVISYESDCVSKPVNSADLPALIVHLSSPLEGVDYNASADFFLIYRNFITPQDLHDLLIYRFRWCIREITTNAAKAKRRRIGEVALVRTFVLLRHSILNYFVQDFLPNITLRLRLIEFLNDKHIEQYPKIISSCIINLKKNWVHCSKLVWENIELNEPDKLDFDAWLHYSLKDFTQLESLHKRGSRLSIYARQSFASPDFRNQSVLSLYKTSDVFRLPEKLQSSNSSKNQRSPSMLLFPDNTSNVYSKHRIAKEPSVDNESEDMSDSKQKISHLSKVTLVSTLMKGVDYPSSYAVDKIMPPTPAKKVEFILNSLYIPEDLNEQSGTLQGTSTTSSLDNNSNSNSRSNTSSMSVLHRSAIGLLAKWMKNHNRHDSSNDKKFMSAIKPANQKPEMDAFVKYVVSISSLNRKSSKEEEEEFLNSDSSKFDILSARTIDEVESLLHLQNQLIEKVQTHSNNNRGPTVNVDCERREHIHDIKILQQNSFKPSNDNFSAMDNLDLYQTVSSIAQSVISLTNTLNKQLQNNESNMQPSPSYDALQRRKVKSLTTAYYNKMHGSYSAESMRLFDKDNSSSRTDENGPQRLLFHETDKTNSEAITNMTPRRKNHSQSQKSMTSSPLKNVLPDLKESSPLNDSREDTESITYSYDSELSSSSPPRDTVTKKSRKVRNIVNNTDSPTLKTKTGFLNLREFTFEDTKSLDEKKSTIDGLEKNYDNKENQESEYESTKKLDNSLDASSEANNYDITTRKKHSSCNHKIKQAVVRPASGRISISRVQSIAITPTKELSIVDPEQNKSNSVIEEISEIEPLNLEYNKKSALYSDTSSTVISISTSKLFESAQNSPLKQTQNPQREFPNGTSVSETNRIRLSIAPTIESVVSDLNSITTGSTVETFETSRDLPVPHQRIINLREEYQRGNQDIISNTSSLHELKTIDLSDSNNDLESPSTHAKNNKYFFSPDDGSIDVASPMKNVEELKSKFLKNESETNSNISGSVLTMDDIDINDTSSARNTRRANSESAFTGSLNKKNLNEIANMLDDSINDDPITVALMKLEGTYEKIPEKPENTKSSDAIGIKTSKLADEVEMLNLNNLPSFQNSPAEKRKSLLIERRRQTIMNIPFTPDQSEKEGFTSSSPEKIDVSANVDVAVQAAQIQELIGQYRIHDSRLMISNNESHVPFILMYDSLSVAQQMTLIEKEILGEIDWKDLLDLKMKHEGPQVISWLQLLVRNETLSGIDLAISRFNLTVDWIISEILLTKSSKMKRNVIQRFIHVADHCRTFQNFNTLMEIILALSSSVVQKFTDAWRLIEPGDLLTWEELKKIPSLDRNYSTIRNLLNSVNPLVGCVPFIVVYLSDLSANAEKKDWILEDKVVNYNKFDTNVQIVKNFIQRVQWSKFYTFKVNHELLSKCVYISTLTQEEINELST
Test: pull-down

binding result: binds
B1: Ras2 protein purified from the insect cells (natural protein, budding yeast, UniProt P01120 1-322, looked up)
chain: MPLNKSNIREYKLVVVGGGGVGKSALTIQLTQSHFVDEYDPTIEDSYRKQVVIDDEVSILDILDTAGQEEYSAMREQYMRNGEGFLLVYSITSKSSLDELMTYYQQILRVKDTDYVPIVVVGNKSDLENEKQVSYQDGLNMAKQMNAPFLETSAKQAINVEEAFYTLARLVRDEGGKYNKTLTENDNSKQTSQDTKGSGANSVPRNSGGHRKMSNAANGKNVNSSTTVVNARNASIESKTGLAGNQATNGKTQTDRTNIDNSTGQAGQANAQSANTVNNRVNNNSKAGQVSNAKQARKQQAAPGGNTSEASKSGSGGCCIIS

— paper PMC2172978 (The Journal of Cell Biology, 2003)
